US20160333101A1 (GENOR BIOPHARMA, published 2016)

T1: RANK on RAW264.7 cells (mouse (RAW264.7 cells), UniProt O35305 31-625)
T1 sequence (looked up): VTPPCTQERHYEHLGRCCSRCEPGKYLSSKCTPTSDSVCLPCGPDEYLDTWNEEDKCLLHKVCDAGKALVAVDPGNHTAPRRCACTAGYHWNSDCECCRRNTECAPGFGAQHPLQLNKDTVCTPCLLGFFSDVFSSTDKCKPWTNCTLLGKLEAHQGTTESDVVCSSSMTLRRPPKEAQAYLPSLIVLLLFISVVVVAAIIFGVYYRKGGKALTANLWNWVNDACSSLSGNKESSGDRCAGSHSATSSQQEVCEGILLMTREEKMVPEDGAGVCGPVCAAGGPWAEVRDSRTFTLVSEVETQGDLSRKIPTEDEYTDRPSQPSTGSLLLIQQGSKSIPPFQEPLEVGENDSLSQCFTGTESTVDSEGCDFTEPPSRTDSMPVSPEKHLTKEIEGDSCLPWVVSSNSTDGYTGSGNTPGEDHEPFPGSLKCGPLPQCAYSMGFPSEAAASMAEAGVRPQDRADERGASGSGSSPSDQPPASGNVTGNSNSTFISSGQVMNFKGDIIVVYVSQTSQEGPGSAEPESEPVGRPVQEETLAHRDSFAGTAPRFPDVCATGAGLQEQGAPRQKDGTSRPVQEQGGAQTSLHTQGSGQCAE

B1: recombinant human RANKL (ligand)
chain: HHHHHHHHHHGSQHIRAEKAMVDGSWLDLAKRSKLEAQPFAHLTINATDIPSGSHKVSLSSWYHDRGWAKISNMTFSNGKLIVNQDGFYYLYANICFRHHETSGDLATEYLQLMVYVTKTSIKIPSSHTLMKGGSTKYWSGNSEFHFYSINVGGFFKLRSGEEISIEVSNPSLLDPDQDATYFGAFKVRDID
B2: commercial hRANKL standard (ligand, human, UniProt O14788 140-317, looked up)
chain: IRAEKAMVDGSWLDLAKRSKLEAQPFAHLTINATDIPSGSHKVSLSSWYHDRGWAKISNMTFSNGKLIVNQDGFYYLYANICFRHHETSGDLATEYLQLMVYVTKTSIKIPSSHTLMKGGSTKYWSGNSEFHFYSINVGGFFKLRSGEEISIEVSNPSLLDPDQDATYFGAFKVRDID
B3: RANK-Fc (Fc fusion)
chain: IAPPCTSEKHYEHLGRCCNKCEPGKYMSSKCTTTSDSVCLPCGPDEYLDSWNEEDKCLLHKVCDTGKALVAVVAGNSTTPRRCACTAGYHWSQDCECCRRNTECAPGLGAQHPLQLNKDTVCKPCLAGYFSDAFSSTDKCRPWTNCTFLGKRVEHHGTEKSDAVCSSSLPARKPPNEPHVYLP
notes: Bought from R & D Systems; also called receptor RANK-Fc; not shown: Human IgG Fc part and any linker of the bought R & D Systems RANK-Fc

Key:
[1] = target: T1, RANK on RAW264.7 cells; test: cell-based or functional assay
[2] = target: B1; test: ELISA, coated recombinant human RANKL, RANK-Fc titrated, anti-human IgG-Fc
Protocol: (§1) The samples are diluted to 1 μg/ml, was added 100 and incubated overnight at 4° C. RANK-Fc gradient diluted from 10 μg/ml is added, 1:20,000 dilution of secondary antibody (goat anti-human IgG-Fc) is added, the sample is incubated for 1 hour at room temperature, is colored using TMB chromogenic color system. Absorbance value to each well of the 96-well plate is measured on the multifunction microplate reader with a measurement wavelength of 450 nm, a reference wavelength of 630 nm, absorbance value to each well (OD)=OD450 nm-OD630 nm.

[3] = target: B2; test: ELISA, coated commercial hRANKL standard, RANK-Fc titrated, anti-human IgG-Fc
Protocol: as §1

Binder | EC50 of inducing RAW264.7 cells to be differentiated into osteoclasts (tartrate-resistant acid phosphatase, pNPP) [1] [ng/ml] | EC50 [2] [ng/mL] | EC50 [3] [ng/mL]
B1 | 113 |  | 
B2 | 35.7 |  | 
B3 |  | 10.9 | 5.6
